Each block holds one substance with its values, some of them ahead of it.
Experiments:
[1] = biological target: AncSR1-LBD 184E (dimerization-interface mutant with a non-historical charge-repulsion mutation); assay: native MS
[2] = biological target: AncSR1-LBD L180F/A181Y/M185K (dimerization-interface mutant with three historical substitutions); assay: native MS
[3] = biological target: AncSR1-LBD fused to the CTE of AncSR2-LBD; assay: SEC-MALS

fold increase of Kd against AncSR1-LBD [1]: > 20 fold
Substance: AncSR1-LBD 184E (dimerization-interface mutant with a non-historical charge-repulsion mutation) (domain or fragment)

fold increase of Kd against AncSR1-LBD [2]: > 20 fold
Substance: AncSR1-LBD L180F/A181Y/M185K (dimerization-interface mutant with three historical substitutions) (domain or fragment)

stoichiometry N [3]: 2
Substance: AncSR1-LBD fused to the CTE of AncSR2-LBD (domain or fragment)

Reference: paper PMC8168016
